For eight molecules, IC50-based peak height and % inhibition results are on record in patent US20190194280A1.

First the molecules themselves.
B1: Aβ13-22 or APP 770 (H684-E693) (peptide)
peptide: HHQKLVFFAE
B2: Aβ12-21 or APP 770 (V683-A692) (peptide)
peptide: VHHQKLVFFA
B3: Aβ10-19 or APP 770 (Y681-F690) (peptide)
peptide: YEVHHQKLVF
B4: Aβ11-20 or APP 770 (E682-F691) (peptide)
peptide: EVHHQKLVFF
B5: Aβ15-24 or APP 770 (Q686-V695) (peptide)
peptide: QKLVFFAEDV
B6: Aβ2-11 or APP 770 (A673-E682) (peptide)
peptide: AEFRHDSGYE
B7: Aβ14-23 or APP 770 (H685-D694) (peptide)
peptide: HQKLVFFAED
B8: Aβ3-12 or APP 770 (E674-V683) (peptide)
peptide: EFRHDSGYEV

The first experiment addresses Serum samples collected at week 16 from patients immunized with UBI AD vaccine (UB-311). In words: comp. ELISA, serum P207.
Turning to B1, the IC50-based peak height amounted to 0.

Take B2: the IC50-based peak height worked out at 27.

For B3, the IC50-based peak height was found to be 10.

With B4, the IC50-based peak height is 0.

Take B5: the IC50-based peak height stood at 0.

B6 had an IC50-based peak height of 0.

B7 came in with an IC50-based peak height of 0.

With B8, the IC50-based peak height was found to be 0.

The target is the same in another experiment. In words: comp. ELISA, serum P204. On the technique in general: In an ELISA, binding on a coated surface is turned into a signal by an enzyme label.
On to B1, for which the IC50-based peak height amounted to 0.

In the case of B2, the IC50-based peak height turned out to be 0.

B3 showed an IC50-based peak height of 0.

B4 returned an IC50-based peak height of 0.

B5 registered an IC50-based peak height of 0.

For the molecule B6, the IC50-based peak height was 0.

B7 came in with an IC50-based peak height of 0.

Turning to B8, the IC50-based peak height was 0.

A further experiment shares this target. In words: comp. ELISA, serum P108.
B1: the IC50-based peak height was found to be 0.

B2 had an IC50-based peak height of 0.

In turn, B3 came in with an IC50-based peak height of 0.

The molecule B4 yielded an IC50-based peak height of 0.

Consider B5, for which the IC50-based peak height came to 0.

As for B6, the IC50-based peak height amounted to 0.

B7 displayed an IC50-based peak height of 0.

B8 gave an IC50-based peak height of 0.

The target is the same in another experiment. In words: comp. ELISA, serum P201.
With B1, the IC50-based peak height came out at 0.

Consider B2, for which the IC50-based peak height is 0.

B3 yielded an IC50-based peak height of 0.

Molecule B4 gave an IC50-based peak height of 0.

The molecule B5 gave an IC50-based peak height of 0.

B6 showed an IC50-based peak height of 3.

B7 came in with an IC50-based peak height of 0.

The molecule B8 gave an IC50-based peak height of 0.

A further experiment shares this target. In words: comp. ELISA, serum P208.
Molecule B1 yielded an IC50-based peak height of 0.

As to B2, the IC50-based peak height worked out at 0.

Molecule B3 displayed an IC50-based peak height of 0.

As to B4, the IC50-based peak height came to 0.

On to B5, for which the IC50-based peak height came out at 0.

Take B6: the IC50-based peak height was determined as 0.

B7 showed an IC50-based peak height of 0.

In turn, B8 gave an IC50-based peak height of 0.

The target is the same in another experiment. In words: comp. ELISA, serum P205.
With B1, the IC50-based peak height amounted to 0.

Molecule B2 displayed an IC50-based peak height of 0.

B3 returned an IC50-based peak height of 0.

B4 registered an IC50-based peak height of 0.

In turn, B5 had an IC50-based peak height of 0.

Molecule B6 returned an IC50-based peak height of 0.

Regarding B7, the IC50-based peak height is 0.

Consider B8, for which the IC50-based peak height was found to be 0.

The next experiment shares this target. In words: comp. ELISA, serum P210.
B1: the IC50-based peak height came to 0.

For B2, the IC50-based peak height came out at 0.

In turn, B3 came in with an IC50-based peak height of 0.

Consider B4, for which the IC50-based peak height is 0.

Molecule B5 showed an IC50-based peak height of 0.

Take B6: the IC50-based peak height came to 0.

On to B7, for which the IC50-based peak height came out at 0.

In turn, B8 returned an IC50-based peak height of 0.

For the next experiment the target is unchanged. In words: comp. ELISA, serum P106.
Consider B1, for which the IC50-based peak height is 0.

B2 came in with an IC50-based peak height of 0.

For the molecule B3, the IC50-based peak height is 0.

In turn, B4 gave an IC50-based peak height of 0.

B5 returned an IC50-based peak height of 0.

Take B6: the IC50-based peak height was found to be 0.

With B7, the IC50-based peak height was determined as 0.

On to B8, for which the IC50-based peak height worked out at 0.

The target is the same in another experiment. In words: comp. ELISA, serum P105.
B1 had an IC50-based peak height of 0.

Consider B2, for which the IC50-based peak height is 0.

B3 registered an IC50-based peak height of 0.

In the case of B4, the IC50-based peak height was determined as 0.

Regarding B5, the IC50-based peak height came to 0.

For B6, the IC50-based peak height is 0.

B7 came in with an IC50-based peak height of 0.

On to B8, for which the IC50-based peak height was found to be 0.

The next experiment has the same target. In words: comp. ELISA, serum P206.
B1 had an IC50-based peak height of 0.

For B2, the IC50-based peak height stood at 0.

The molecule B3 came in with an IC50-based peak height of 0.

Turning to B4, the IC50-based peak height was 0.

With B5, the IC50-based peak height is 0.

B6 showed an IC50-based peak height of 0.

For the molecule B7, the IC50-based peak height stood at 0.

B8 had an IC50-based peak height of 0.

Another experiment shares this target. In words: comp. ELISA, serum P101.
Take B1: the IC50-based peak height amounted to 0.

B2 came in with an IC50-based peak height of 0.

Molecule B3 showed an IC50-based peak height of 0.

B4 had an IC50-based peak height of 0.

B5 came in with an IC50-based peak height of 0.

B6 showed an IC50-based peak height of 2.

Take B7: the IC50-based peak height was found to be 0.

B8 had an IC50-based peak height of 0.

For another experiment the target is unchanged. In words: comp. ELISA, serum P107.
As for B1, the IC50-based peak height was 0.

B2 yielded an IC50-based peak height of 0.

For B3, the IC50-based peak height stood at 0.

Consider B4, for which the IC50-based peak height turned out to be 0.

For B5, the IC50-based peak height came out at 0.

On to B6, for which the IC50-based peak height was determined as 0.

B7 returned an IC50-based peak height of 0.

B8 gave an IC50-based peak height of 0.

For a further experiment the target is unchanged. In words: comp. ELISA, serum P103.
The molecule B1 came in with an IC50-based peak height of 0.

As for B2, the IC50-based peak height came out at 0.

Take B3: the IC50-based peak height came to 0.

In turn, B4 had an IC50-based peak height of 0.

The molecule B5 registered an IC50-based peak height of 0.

The molecule B6 had an IC50-based peak height of 0.

Consider B7, for which the IC50-based peak height turned out to be 0.

Turning to B8, the IC50-based peak height is 0.

The target is the same in the next experiment. In words: comp. ELISA, serum P102.
B1 returned an IC50-based peak height of 0.

On to B2, for which the IC50-based peak height was found to be 0.

With B3, the IC50-based peak height worked out at 0.

Molecule B4 gave an IC50-based peak height of 0.

In turn, B5 yielded an IC50-based peak height of 0.

With B6, the IC50-based peak height is 0.

Turning to B7, the IC50-based peak height worked out at 0.

B8 had an IC50-based peak height of 0.

For the next experiment the target is unchanged. In words: comp. ELISA, serum P203.
The molecule B1 came in with an IC50-based peak height of 0.

As to B2, the IC50-based peak height worked out at 0.

Molecule B3 displayed an IC50-based peak height of 0.

Turning to B4, the IC50-based peak height was 0.

Consider B5, for which the IC50-based peak height came out at 0.

In turn, B6 had an IC50-based peak height of 0.

B7 returned an IC50-based peak height of 0.

Regarding B8, the IC50-based peak height amounted to 0.

Another experiment has the same target. In words: comp. ELISA, serum P202.
B1 showed an IC50-based peak height of 0.

In turn, B2 showed an IC50-based peak height of 0.

B3: the IC50-based peak height stood at 0.

On to B4, for which the IC50-based peak height was found to be 0.

Molecule B5 displayed an IC50-based peak height of 0.

As for B6, the IC50-based peak height is 0.

B7 registered an IC50-based peak height of 0.

Molecule B8 registered an IC50-based peak height of 0.

The next experiment deals with Immune sera of baboons immunized with UBI AD vaccine. In words: competitive inhibition ELISA.
B6 registered a % inhibition at 0 µg/mL of 0%, a % inhibition at 0.25 µg/mL of 3%, a % inhibition at 0.5 µg/mL of 0% and a % inhibition at 1 µg/mL of 0%. For the same molecule, the % inhibition at 2 µg/mL amounted to 0%, the % inhibition at 8 µg/mL was determined as 6% and the % inhibition at 32 µg/mL came to 19%.

In the case of B8, the % inhibition at 0 µg/mL stood at 0%, the % inhibition at 0.25 µg/mL is 1%, the % inhibition at 0.5 µg/mL worked out at 1% and the % inhibition at 1 µg/mL was determined as 0%. The molecule further yielded a % inhibition at 2 µg/mL of 0%, a % inhibition at 8 µg/mL of 0% and a % inhibition at 32 µg/mL of 3%.

A further experiment deals with Serum samples collected at week 16 from patients immunized with UBI AD vaccine (UB-311). In words: comp. ELISA, serum P209.
The molecule B1 displayed an IC50-based peak height of 0.

For B2, the IC50-based peak height is 0.

Regarding B3, the IC50-based peak height stood at 0.

Take B4: the IC50-based peak height amounted to 0.

Take B5: the IC50-based peak height was 0.

For the molecule B6, the IC50-based peak height amounted to 0.

For B7, the IC50-based peak height came to 0.

In turn, B8 registered an IC50-based peak height of 0.

The next experiment has the same target. In words: comp. ELISA, serum P104.
The molecule B1 came in with an IC50-based peak height of 0.

The molecule B2 gave an IC50-based peak height of 0.

For the molecule B3, the IC50-based peak height amounted to 0.

As to B4, the IC50-based peak height was found to be 0.

For the molecule B5, the IC50-based peak height was 0.

B6 registered an IC50-based peak height of 0.

Take B7: the IC50-based peak height was found to be 0.

B8 yielded an IC50-based peak height of 0.

The target is the same in a further experiment. In words: comp. ELISA, serum P109.
As to B1, the IC50-based peak height came to 0.

B2 returned an IC50-based peak height of 0.

With B3, the IC50-based peak height came out at 0.

B4 displayed an IC50-based peak height of 0.

Regarding B5, the IC50-based peak height came to 0.

B6 showed an IC50-based peak height of 0.

On to B7, for which the IC50-based peak height was 0.

Molecule B8 came in with an IC50-based peak height of 0.

In general, % inhibition refers to the change of the read-out against control, counted positive when it falls. A higher % inhibition goes with a strong effect.
